How the values were obtained:
Assay in all cases: cell-based or functional assay
[1] = target: HIV-1 Env of isolate 92BR020 (pseudovirus) (HIV-1)
[2] = target: HIV-1 Env of isolate 94UG103 (pseudovirus) (HIV-1)
[3] = target: HIV-1 Env of isolate JR-CSF (pseudovirus) (HIV-1) (UniProt P20871)
[4] = target: HIV-1 Env of isolate MGRM-C-026 (pseudovirus) (HIV-1)
[5] = target: HIV-1 Env of isolate MG RM-D-011 (HIV-1)
[6] = target: HIV-1 Env of isolate MG RM-D-012 (HIV-1)
[7] = target: HIV-1 Env of isolate MG RM-D-013 (HIV-1)
[8] = target: HIV-1 Env of isolate MG RM-D-014 (HIV-1)
[9] = target: HIV-1 Env of isolate MG RM-D-016 (HIV-1)
[10] = target: HIV-1 Env of isolate MG RM-D-018 (HIV-1)
[11] = target: HIV-1 Env of isolate MG RM-D-019 (HIV-1)
[12] = target: HIV-1 Env of isolate MG RM-D-020 (HIV-1)
[13] = target: HIV-1 Env of isolate MG RM-D-021 (HIV-1)
[14] = target: HIV-1 Env of isolate MG RM-D-022 (HIV-1)
[15] = target: HIV-1 Env of isolate MG RM-D-024 (HIV-1)
[16] = target: HIV-1 Env of isolate MG RM-D-026 (HIV-1)
[17] = target: HIV-1 Env of isolate MG RM-D-028 (HIV-1)
[18] = target: HIV-1 Env of isolate MG RM-D-029 (HIV-1)
[19] = target: HIV-1 Env of isolate MGRM-Chronic-B-012 (HIV-1)
[20] = target: HIV-1 Env of isolate MGRM-F1-004 (HIV-1)
[21] = target: HIV-1 Env of isolate MGRM-F1-006 (HIV-1)
[22] = target: HIV-1 Env of isolate MGRM-F1-008 (HIV-1)
[23] = target: HIV-1 Env of isolate MGRM-F1-010 (HIV-1)
[24] = target: HIV-1 Env of isolate MGRM-F1-012 (HIV-1)
[25] = target: HIV-1 Env of isolate MGRM-F1-013 (HIV-1)
[26] = target: HIV-1 Env of isolate MGRM-F1-014 (HIV-1)
[27] = target: HIV-1 Env of isolate MGRM-F1-015 (HIV-1)
[28] = target: HIV-1 Env of isolate MGRM-F1-016 (HIV-1)
[29] = target: HIV-1 Env of isolate MGRM-F1-017 (HIV-1)
[30] = target: HIV-1 Env of isolate MGRM-F1-018 (HIV-1)
[31] = target: HIV-1 Env of isolate MGRM-F1-020 (HIV-1)
[32] = target: HIV-1 Env of isolate MGRM-F1-021 (HIV-1)
[33] = target: HIV-1 Env of isolate MGRM-F1-022 (HIV-1)
[34] = target: HIV-1 Env of isolate MGRM-F1-023 (HIV-1)
[35] = target: HIV-1 Env of pseudovirus MGRM-AE-007 (subtype AE) (HIV-1)
[36] = target: HIV-1 Env of pseudovirus MGRM-AE-008 (subtype AE) (HIV-1)
[37] = target: HIV-1 Env of pseudovirus MGRM-AG-001 (subtype AG) (HIV-1)
[38] = target: HIV-1 Env of pseudovirus MGRM-AG-002 (subtype AG) (HIV-1)
[39] = target: HIV-1 Env of pseudovirus MGRM-AG-003 (subtype AG) (HIV-1)
[40] = target: HIV-1 Env of pseudovirus MGRM-AG-005 (subtype AG) (HIV-1)
[41] = target: HIV-1 Env of pseudovirus MGRM-AG-006 (subtype AG) (HIV-1)
[42] = target: HIV-1 Env of pseudovirus MGRM-AG-008 (subtype AG) (HIV-1)
[43] = target: HIV-1 Env of pseudovirus MGRM-AG-009 (subtype AG) (HIV-1)
[44] = target: HIV-1 Env of pseudovirus MGRM-AG-011 (subtype AG) (HIV-1)
[45] = target: HIV-1 Env of pseudovirus MGRM-AG-012 (subtype AG) (HIV-1)
[46] = target: HIV-1 Env of pseudovirus MGRM-AG-013 (subtype AG) (HIV-1)

PGT-145 (4995_P16) (antibody), sequence (VH): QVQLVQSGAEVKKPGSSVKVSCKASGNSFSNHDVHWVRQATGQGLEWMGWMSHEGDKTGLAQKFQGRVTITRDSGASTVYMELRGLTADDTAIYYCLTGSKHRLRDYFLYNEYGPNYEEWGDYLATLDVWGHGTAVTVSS
PGT-145 (4995_P16) (antibody), sequence (VL): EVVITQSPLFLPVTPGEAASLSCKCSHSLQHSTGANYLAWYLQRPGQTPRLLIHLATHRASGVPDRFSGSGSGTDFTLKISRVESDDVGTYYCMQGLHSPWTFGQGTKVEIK

Substance 4873_E03 (PGT-121) (antibody) has a Primary Neutralization Index (B cell culture supernatant) [1] of 3.6, a Primary Neutralization Index (B cell culture supernatant) [2] of 0.8 and a Primary Neutralization Index (B cell culture supernatant) [3] of 2.2. For the same substance, the Primary Neutralization Index (B cell culture supernatant) [4] was 371.
With PGT-145 (4995_P16) (antibody) the IC50 [5] was 14.7 µg/mL, the IC50 [6] was greater than 50 µg/mL and the IC50 [7] was 3.48 µg/mL. For the same substance, the IC50 [8] was 2.51 µg/mL, the IC50 [9] was greater than 50 µg/mL and the IC50 [10] was 0.065 µg/mL. It also gave an IC50 [11] of 0.111 µg/mL, an IC50 [12] of 10 µg/mL and an IC50 [13] greater than 50 µg/mL. The IC50 [14] was 34.3 µg/mL, the IC50 [15] was 0.224 µg/mL and the IC50 [16] was 0.41 µg/mL. It also gave an IC50 [17] of 0.721 µg/mL, an IC50 [18] of 0.03 µg/mL and an IC50, pseudovirus neutralization [19] of 9.06 µg/mL. The IC50 [20] was 0.361 µg/mL, the IC50 [21] was 13.6 µg/mL and the IC50 [22] was 0.228 µg/mL. The IC50 [23] was 3.32 µg/mL, the IC50 [24] was 0.113 µg/mL and the IC50 [25] was 0.402 µg/mL. It also gave an IC50 [26] of 0.009 µg/mL, an IC50 [27] of 1.76 µg/mL and an IC50 [28] of 17.5 µg/mL. The IC50 [29] was 0.286 µg/mL, the IC50 [30] was 1.02 µg/mL and the IC50 [31] was 0.816 µg/mL. It also gave an IC50 [32] of 8.04 µg/mL, an IC50 [33] of 0.009 µg/mL and an IC50 [34] of 5.88 µg/mL. It also gave an IC50, pseudovirus neutralization [35] of 0.181 µg/mL, an IC50, pseudovirus neutralization [36] of 1.46 µg/mL and an IC50, pseudovirus neutralization [37] of 0.164 µg/mL. The IC50, pseudovirus neutralization [38] was 0.056 µg/mL, the IC50, pseudovirus neutralization [39] was greater than 50 µg/mL and the IC50, pseudovirus neutralization [40] was 0.045 µg/mL. For the same substance, the IC50, pseudovirus neutralization [41] was 6.6 µg/mL, the IC50, pseudovirus neutralization [42] was 0.244 µg/mL and the IC50, pseudovirus neutralization [43] was greater than 50 µg/mL. For the same substance, the IC50, pseudovirus neutralization [44] was 0.003 µg/mL, the IC50, pseudovirus neutralization [45] was greater than 50 µg/mL and the IC50, pseudovirus neutralization [46] was 14.4 µg/mL.

Source: patent publication US20250320281A1
